# Where a chain is given by its changes, count along the chain named.
# B1: consensus (structured_RNA)
# RNA: GGUCACGUCUCAAUCAACUCCCAAAGGUUUUUUUCAGAACCACCCAUCAACAGCUCGCAGUCAAG
# B2: consensus (structured_RNA)
# RNA: B1 RNA with U28C, C35A, G37A, A39G
# B3: consensus (structured_RNA)
# RNA: B1 RNA with U29C, U30C, C35A, A38G, A39G
# B4: consensus (structured_RNA)
# RNA: B1 RNA with U28C, U29C, C35G, G37A, A38G, A39G
# B5: consensus (structured_RNA)
# RNA: B1 RNA with U29C, U30C, U33C, C35A, A38G
# B6: consensus (structured_RNA)
# RNA: B1 RNA with U28C, U30C, C35U, A39G
# B7: consensus (structured_RNA)
# RNA: B1 RNA with U29C, U30C, C35G, A38G
# B8: consensus (structured_RNA)
# RNA: B1 RNA with U28C, U29C, U33C, C35G, G37A, A38G, A39G
# B9: consensus (structured_RNA)
# RNA: B1 RNA with U29C, U30C, U33C, A38G
# B10: consensus (structured_RNA)
# RNA: B1 RNA with U28C, U33C, C35U, G37A, A39G
# B11: consensus (structured_RNA)
# RNA: B1 RNA with U30C, U33C, C35A
# B12: consensus (structured_RNA)
# RNA: B1 RNA with U29C, G37A, A38G, A39G
# B13: consensus (structured_RNA)
# RNA: B1 RNA with U28C, U29C, U33C, C35A, G37A, A38G, A39G
# B14: consensus (structured_RNA)
# RNA: B1 RNA with U29C, U33C, G37A, A38G
# B15: consensus (structured_RNA)
# RNA: B1 RNA with U28C, U29C, U30C, C35A, A38G, A39G
# B16: consensus (structured_RNA)
# RNA: B1 RNA with A39G
# B17: consensus (structured_RNA)
# RNA: B1 RNA with U29C, U33C, C35U, G37A, A38G
# B18: consensus (structured_RNA)
# RNA: B1 RNA with U29C, U30C, U33C, C35A, A38G, A39G
# B19: consensus (structured_RNA)
# RNA: B1 RNA with U29C, U33C, C35A, G37A, A38G, A39G
# B20: consensus (structured_RNA)
# RNA: B1 RNA with U28C, G37A, A38G, A39G
# B21: consensus (structured_RNA)
# RNA: B1 RNA with U29C, U30C, U33C, A38G, A39G
# B22: consensus (structured_RNA)
# RNA: B1 RNA with U28C, U29C, U30C, C35G, A38G, A39G
# B23: consensus (structured_RNA)
# RNA: B1 RNA with U28C, C35U, A39G
# B24: consensus (structured_RNA)
# RNA: B1 RNA with U29C, U33C, C35U, A38G
# B25: consensus (structured_RNA)
# RNA: B1 RNA with U30C, C35A
# B26: consensus (structured_RNA)
# RNA: B1 RNA with U29C, U33C, C35A, G37A, A38G
# B27: consensus (structured_RNA)
# RNA: B1 RNA with G37A
# B28: consensus (structured_RNA)
# RNA: B1 RNA with U28C, U33C, G37A, A39G
# B29: consensus (structured_RNA)
# RNA: B1 RNA with C35A
# B30: consensus (structured_RNA)
# RNA: B1 RNA with U29C, U30C, A38G, A39G
# B31: consensus (structured_RNA)
# RNA: B1 RNA with U28C, U30C, U33C, A39G
# B32: consensus (structured_RNA)
# RNA: B1 RNA with U28C, U30C, C35A, A38G, A39G
# B33: consensus (structured_RNA)
# RNA: B1 RNA with U28C, U29C, U30C, C35U, A38G, A39G
# B34: consensus (structured_RNA)
# RNA: B1 RNA with U28C, U30C, U33C, A38G, A39G
# B35: consensus (structured_RNA)
# RNA: B1 RNA with U30C, U33C
# B36: consensus (structured_RNA)
# RNA: B1 RNA with U28C, U30C, U33C, C35A, A39G
# B37: consensus (structured_RNA)
# RNA: B1 RNA with U28C, G37A, A39G
# B38: consensus (structured_RNA)
# RNA: B1 RNA with U28C, U29C, U30C, U33C, C35G, A38G, A39G
# B39: consensus (structured_RNA)
# RNA: B1 RNA with U29C, C35A, G37A, A38G, A39G
# B40: consensus (structured_RNA)
# RNA: B1 RNA with U28C, U30C, A39G
# B41: consensus (structured_RNA)
# RNA: B1 RNA with U28C, U30C, C35A, A39G
# B42: consensus (structured_RNA)
# RNA: B1 RNA with U33C, C35A
# B43: consensus (structured_RNA)
# RNA: B1 RNA with U28C, U33C, C35U, A38G, A39G
# B44: consensus (structured_RNA)
# RNA: B1 RNA with U30C, A38G
# B45: consensus (structured_RNA)
# RNA: B1 RNA with U29C, U30C, U33C, C35U, A38G
# B46: consensus (structured_RNA)
# RNA: B1 RNA with U28C, U29C, G37A, A38G, A39G
# B47: consensus (structured_RNA)
# RNA: B1 RNA with U30C
# B48: consensus (structured_RNA)
# RNA: B1 RNA with U28C, U30C, U33C, C35U, A39G
# B49: consensus (structured_RNA)
# RNA: B1 RNA with U28C, C35A, G37A, A38G, A39G
# B50: consensus (structured_RNA)
# RNA: B1 RNA with U33C, C35A, G37A
# B51: consensus (structured_RNA)
# RNA: B1 RNA with U29C, C35U, G37A, A38G
# B52: consensus (structured_RNA)
# RNA: B1 RNA with U29C, C35A, G37A, A38G
# B53: consensus (structured_RNA)
# RNA: B1 RNA with U29C, U30C, C35U, A38G
# B54: consensus (structured_RNA)
# RNA: B1 RNA with U28C, U30C, U33C, C35A, A38G, A39G
# B55: consensus (structured_RNA)
# RNA: B1 RNA with U28C, U33C, C35A, G37A, A39G
# B56: consensus (structured_RNA)
# RNA: B1 RNA with U29C, C35U, A38G, A39G
# B57: consensus (structured_RNA)
# RNA: B1 RNA with U28C, U29C, U33C, C35U, G37A, A38G, A39G
# B58: consensus (structured_RNA)
# RNA: B1 RNA with U28C, U29C, U30C, U33C, C35U, A38G, A39G
# Target: GST-SBP-SLBP (stem-loop binding protein) (Homo sapiens, UniProt Q14493 1-270)
# Assay: targeted RNA Bind-n-Seq; RBNS binding buffer: 25 mM Tris pH 7.5, 150 mM KCl, 3 mM MgCl2, 0.1% Tween, 0.5 mg/mL BSA, 1 mM DTT; 27 nM protein, 750 pM RNA pool; temperature not stated; high values mean tight binding
# Details: protein: recombinant; tags: N-terminal GST and SBP (pGEX6P1-SBP)
# Summary of the method: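 Read counts per sequence supply the binding signal, defined as the DEseq fold change on a binary-logarithm scale. These counts came from RNA of a designed, T7-transcribed oligo pool at 750 pM that bound 27 nM of GST-SBP-tagged protein, made in Rosetta(DE3) pLysS E. coli and glutathione-purified, in RBNS binding buffer. The bound RNA was reverse transcribed with a 10-nucleotide barcoded primer, PCR-amplified and sequenced on a MiSeq with 200-cycle paired-end reads, then processed with FLASH and HISAT2 and collapsed by barcode.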
row,Binder,binding signal [log2 fold change]
1,B1,0.928 ± 0.165
2,B2,3.48 ± 0.133
3,B3,3.26 ± 0.128
4,B4,3.34 ± 0.155
5,B5,3.48 ± 0.135
6,B6,3.17 ± 0.142
7,B7,3.06 ± 0.144
8,B8,3.32 ± 0.133
9,B9,3.44 ± 0.13
10,B10,3 ± 0.122
11,B11,3.04 ± 0.122
12,B12,3.26 ± 0.121
13,B13,3.74 ± 0.124
14,B14,3.5 ± 0.113
15,B15,3.52 ± 0.16
16,B16,0.623 ± 0.163
17,B17,3.14 ± 0.132
18,B18,3.27 ± 0.13
19,B19,3.19 ± 0.133
20,B20,3.17 ± 0.125

row,Binder,binding signal [log2 fold change]
1,B21,3.16 ± 0.131
2,B22,3.37 ± 0.174
3,B23,0.854 ± 0.146
4,B24,0.816 ± 0.166
5,B25,3.2 ± 0.125
6,B26,3.73 ± 0.129
7,B27,3.04 ± 0.195
8,B28,3.24 ± 0.124
9,B29,0.759 ± 0.157
10,B30,3.33 ± 0.12
11,B31,3.23 ± 0.14
12,B32,3.07 ± 0.12
13,B33,3.48 ± 0.162
14,B34,3.04 ± 0.124
15,B35,3.02 ± 0.121
16,B36,3.2 ± 0.135
17,B37,3.5 ± 0.119
18,B38,3.16 ± 0.18
19,B39,3.18 ± 0.125
20,B40,3.73 ± 0.129

row,Binder,binding signal [log2 fold change]
1,B41,3.5 ± 0.152
2,B42,0.796 ± 0.151
3,B43,0.933 ± 0.168
4,B44,3 ± 0.116
5,B45,3.13 ± 0.132
6,B46,3.7 ± 0.124
7,B47,3.44 ± 0.114
8,B48,3.11 ± 0.136
9,B49,3.16 ± 0.137
10,B50,3.04 ± 0.144
11,B51,3.2 ± 0.118
12,B52,3.5 ± 0.12
13,B53,3.37 ± 0.117
14,B54,3.19 ± 0.123
15,B55,3.29 ± 0.116
16,B56,0.724 ± 0.177
17,B57,3.55 ± 0.131
18,B58,3.46 ± 0.16

# Reference: article PMC5892938, “SARNAclust: Semi-automatic detection of RNA protein binding motifs from immunoprecipitation data”
